We go through one molecule from patent US20220154156A1, “PROTEINS AND METHODS FOR DISRUPTING BACTERIAL COMMUNICATION” (REGENTS OF THE UNIVERSITY OF MINNESOTA, priority 2019, published 2022).

In assay [1] the test system is corrosion tubercles on steel coupons. Briefly: Dose-response of lactonase for inhibiting biocorrosion, 7 weeks. The method, then: Five treatments with lactonase enzyme and two controls of the steel coupons were investigated for enzyme activity and corrosion rate. Each treatment or control contained three replicate steel coupons. They were exposed in lake water in lab microcosm for a period of 7 weeks. Lactonase enzyme silica gel coated testing coupon are prepared as described before, except the coupons were dipped and dried twice and covered with 2 layers of the same coating to ensure the intactness of the coating. The enzyme concentrations used in this experiment were 100, 200, 500, 1000 μg/ml. Also 100 μg/ml equivalent activity lactonase raw extract was tested to compare the effectiveness of raw enzyme extract to the purified lactonase enzyme.
After 7 weeks of exposure, coupons were retrieved and analyzed. The coupons in each treatment was photographed by the end of the experiment. Biocorrosion was evaluated by quantities and coverage of corrosion tubercle. Surface roughness measurement were also made with procedure described above.

In assay [2] the test system is Xanthomonas translucens pv. translucens LMG876. As to the kind of experiment: Barley leaf infection. In kind it is in vivo. The following applies: single spraying of 1 mL, 10 mg/mL. How it is done: FIG. 30A-30F show control of plant infections by a single spraying of 1 mL of lactonase solution (10 mg/mL) on plant leaves and crop. (A) and (B) Soft rot potato assay.
Specifically, we could establish infection systems for corn, wheat, and barley plants, and a crop infection system for potato (tubers and leaves).

Assay [3] in a line: Lactonase assay (pH indicator, cresol purple), kinetic measurements. In kind it is biochemical. The following applies: AHL acyl chain length. The method, then:
Kinetic measurements. The determination of GcL catalytic efficiency was performed by using a microplate reader (Synergy HTX, BioTek, USA) and the software Gen5.1 over a range of substrates (FIG. 2). The reactions were operate in a 96-well plate at a path length of 5.8 mm for a 200 μl reaction volume at room temperature. The catalytic parameters were achieved by fitting the data to Michaelis-Menten equation with the Graph-Pad Prism 5 software. When, Vmax was not reached, the catalytic efficiency was determined by fitting the linear part of Michaelis-Menten plot to a linear regression using Graph-Pad Prism 5.
Lactonase assay. The AHL lactonolysis consisting in the opening of the lactone ring generates a proton, and leads to an acidification of the media. This property allowed the characterization of the lactonases by using a pH indicator assay. To perform the experiment 5 μl of enzyme were added to a solution containing 10 μl of substrates at various concentrations and 185 μl of lactonase buffer (2.5 mM Bicine pH 8.3, 150 mM NaCl, 0.2 mM CoCl2, 0.2 mM cresol purple, 0.5% DMSO). This assay was performed at 25° C. and the time course of the lactones hydrolysis was recorded at 577 nm. The characterization of the enzyme was proceeding against a large panel of AHLs: C4-AHL, C6-AHL, C8-AHL, C10-AHL, 3-oxo-C8-AHL and against γ-Butyrolactone, γ-Heptalactone, γ-Nonalactone, γ-Decanolactone, δ-Valerolactone, δ-Octanolactone, δ-Nonalactone, δ-Decalactone, ε-Caprolactone, ε-Decalactone, Whiskey lactone.

In assay [4] the test system is P. syringae pv. Phaseolicola. As to the kind of experiment: Kidney bean plant infection. The format is in vivo. Conditions: sprayed, 14 days, multiple inoculations. The method, then:
Plants were inoculated twice (day 1 and day 6) with 5×10^6 cells P. syringae pv. Phaseolicola. Left, leaves were sprayed with enzyme buffer after the fist inoculation, for right, leaves were sprayed with buffer containing the QQ lactonase (0.5 mg/mL). Pictures were taken at day 14.
Kidney bean plants were grown and infected with P. syringae pv. Phaseolicola.

Assay [5] has as its system biofilm of complex soil microbial community. Briefly: Biofilm microbial community analysis (16S, MiSeq). The format is cell-based. How it is done:
DNA extractions were carried out on biofilms. Submerged wells from the strip-well plates were drained of excess cells/water. Biofilm was scraped from the polypropylene well and put into Powerbead® tubes for DNA extraction (MoBio Powersoil® DNA Extraction Kit). Purified DNA samples were submitted to the University of Minnesota's Genomics Center for 16S rRNA sequencing. Using the Genomics Center platform, each sample underwent amplification, indexing, normalization, pooling, size selection, and final QC for sequencing. The V4 region of the 16s rRNA gene was amplified using primer 515f (5′-GTGCCAGCMGCCGCGGTAA-3′ (SEQ ID NO:14)). After the library preparation steps, it was confirmed all samples passed QC and were submitted for sequencing.
All samples were processed using Mothur v1.35.1. For each sample, 1,250 sequences were used for final analyses. […] Analysis of similarity (ANOSIM) and analysis of molecular variances (AMOVA) were used to evaluate the beta diversity (community composition) among samples using Bray-Curtis dissimilarity matrices (BC) (Bray & Curtis 1957; Clarke 1993). Ordination of Bray-Curtis matrices was performed using principal coordinate analysis (PCoA) to further analyze diversity of sample days throughout the tank (Anderson & Willis 2003). […] All of alpha values evaluated at α=0.05.

Assay [6] has as its system soil bacterial community. Briefly: Different lactonases on soil microbial community (Example 8). In kind it is cell-based. Conditions: 7 days, vs inactive SsoPox 5A8. How it is done: Principal component analysis (PCA) based on deep bacterial 16S rDNA sequences (Illumina V4 region).
The same experiments as described above were performed on the same soil microbial community but with two different lactonases, GcL, and Ssopox W263I. These enzymes differ primarily by their substrate specificity. […] This is important because different bacteria use different AHLs to communicate. Indeed, The structure of AHLs vary a lot with respect to the length of N-acyl chains (from C4 to C18), the hydroxyl or oxo group of the acyl chain and the saturated or unsaturated state of the carbon chain^1. The hydrophobicity of AHLs relates to their passive diffusion through membranes. […] In fact, regulatory circuits may be interconnected, like in P. aeruginosa^6, and allow for compensatory responses: if the LasI/LasR system is inactivated, the RhlI/RhlR system can still control LasI/LasR-spectific functions^7.

Setting [7] is: all concentrations 100-1000 μg/ml, 7 weeks, p<0.05.

B1: SsoPox W263I: improved variant of the hyperthermostable lactonase SsoPox from Sulfolobus solfataricus, exhibiting higher catalytic rates (protein, UniProt Q97VT7 1-314, looked up, variant W263I)
Aryldialkylphosphatase: MRIPLVGKDSIESKDIGFTLIHEHLRVFSEAVRQQWPHLYNEDEEFRNAVNEVKRAMQFGVKTIVDPTVMGLGRDIRFMEKVVKATGINLVAGTGIYIYIDLPFYFLNRSIDEIADLFIHDIKEGIQGTLNKAGFVKIAADEPGITKDVEKVIRAAAIANKETKVPIITHSNAHNNTGLEQQRILTEEGVDPGKILIGHLGDTDNIDYIKKIADKGSFIGLDRYGLDLFLPVDKRNETTLRLIKDGYSDKIMISHDYCCTIDIGTAKPEYKPKLAPRWSITLIFEDTIPFLKRNGVNEEVIATIFKENPKKFFS
B1: in assay [1] (setting [7]), the “reduction of number of corrosion tubercles” value is recorded as greater than 38% and the “reduction of percent coverage of corrosion tubercles” value is greater than 41%. In addition, the “reduction of surface roughness” value in assay [1] (all treatments) is “not statistically significant”. Also, in assay [1] (highest reduction of corrosion tubercles), the “optimal concentration for coating application” value was found to be 200 µg/mL. For the same molecule, the “leaf spots on barley leaves” value in assay [2] is “Absence of leaf spots”. Also, the substrate specificity entry in assay [3] is listed as “not capable of degrading short chain AHLs”. Moreover, in assay [4], the “protection of kidney bean plant” value is reported as “protected the plant from infection”. In addition, the “Aeromonas share of the biofilm community” value in assay [5] (day 7, lactonase 1×) was 79.68%. Besides, the “Aeromonas share of the biofilm community” value in assay [5] (day 7, lactonase 2×) is reported as 42.16%. In addition, the “planktonic microbial community composition” value in assay [6] is on record as “induce differential planktonic microbial community biases”.
